Data published in the supplement of paper PMC6757056.
± gives the standard deviation of the averaged measurements.

B1: library; a variant is named by its letters at N, in order (parent)
chain: GCUGUCACCGGUGUAUUACCCUAGUGGUCGACCGGUCUGAUGAGUCUNNNNNNAGACGAAACAGC

Assays:
[1] = variants of: B1; experiment: FACS-Seq fitted mean relative fluorescence mCherry/BFP without ligand (log10 relative fluorescence); ligand: hypoxanthine (xanthine aptamer); higher = higher reporter protein expression; conditions: HEK293T, ligand present: no
Summary of the method: (§1)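 HEK293T libraries were lentivirally transduced with an mCherry reporter carrying the ribozyme switch and an EF1α-BFP marker, enriched, and incubated for 48 h with or without ligand before sorting into 6 bins by mCherry/BFP. Genomic DNA from each bin was PCR-amplified, barcoded and sequenced on MiSeq. Fluorescence is the fitted normal mean of the bin counts. The fit used log10(mCherry/BFP), and means were scaled to five spiked-in control ribozymes.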

[2] = variants of: B1; experiment: normalized RNA/DNA level with ligand (relative to sTRSVctl = 100) (log10 (% of sTRSVctl)); ligand: hypoxanthine (xanthine aptamer); higher = less ribozyme self-cleavage, higher mRNA level; conditions: ligand concentration (+) RNA-Seq: 5 mM, HEK293T, reporter: mCherry (pCS4076), ligand present: yes
Summary of the method: (§2)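 For each 6-well well, 4 µg of library plasmid encoding mCherry-linked ribozyme switches, or eGFP-linked ones in some ligand experiments, was transfected into HEK293T. Any ligand was added 1 h before transfection, and RNA was extracted with EDTA 72 h after it, then reverse-transcribed, amplified, barcoded and sequenced. RNA level was obtained by dividing RNA reads by DNA reads, normalizing to a spiked-in non-cleaving sequence or to the top sequences, then scaling and log-transforming. The top set was 25 sequences, scaling was ×100 with log10, and ≥100 DNA reads were required.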

[3] = variants of: B1; experiment: normalized RNA/DNA level without ligand (relative to sTRSVctl = 100) (log10 (% of sTRSVctl)); ligand: hypoxanthine (xanthine aptamer); higher = less ribozyme self-cleavage, higher mRNA level; conditions: HEK293T, reporter: mCherry (pCS4076), ligand present: no
Summary of the method: as §2

[4] = variants of: B1; experiment: FACS-Seq fitted mean relative fluorescence mCherry/BFP with ligand (log10 relative fluorescence); ligand: hypoxanthine (xanthine aptamer); ligand concentration (+) FACS-Seq: 5 mM; higher = higher reporter protein expression; conditions: HEK293T, ligand present: yes
Summary of the method: as §1

Variant	FACS-Seq fitted mean (log10) [1]	normalized RNA/DNA level with ligand (log10) [2]	normalized RNA/DNA level without ligand (log10) [3]	FACS-Seq fitted mean (log10) [4]
GCUGUCACCGGUGUAUUACCCUAGUGGUCGACCGGUCUGAUGAGUCUUGUAGAAGACGAAACAGC	0.133 ± 0.057	1.93 ± 0.043	1.55 ± 0.049	0.19 ± 0.011
GCUGUCACCGGUGUAUUACCCUAGUGGUCGACCGGUCUGAUGAGUCUAGUAGAAGACGAAACAGC	0.394 ± 0.025	1.83 ± 0.031	1.42 ± 0.025	0.725 ± 0.0082
GCUGUCACCGGUGUAUUACCCUAGUGGUCGACCGGUCUGAUGAGUCUGGUAGCAGACGAAACAGC	0.239 ± 0.017	1.86 ± 0.054	1.35 ± 0.059	0.647 ± 0.056
GCUGUCACCGGUGUAUUACCCUAGUGGUCGACCGGUCUGAUGAGUCUGGUAGGAGACGAAACAGC	-0.101 ± 0.028	1.69 ± 0.062	1.29 ± 0.041	0.5153 ± 0.001
GCUGUCACCGGUGUAUUACCCUAGUGGUCGACCGGUCUGAUGAGUCUGGUAGUAGACGAAACAGC	0.573 ± 0.11	1.9 ± 0.06	1.75 ± 0.0084	0.507 ± 0.034
GCUGUCACCGGUGUAUUACCCUAGUGGUCGACCGGUCUGAUGAGUCUAGUAGUAGACGAAACAGC	0.38 ± 0.09	1.831 ± 0.016	1.45 ± 0.07	0.577 ± 0.036
GCUGUCACCGGUGUAUUACCCUAGUGGUCGACCGGUCUGAUGAGUCUCGUAUAAGACGAAACAGC	0.422 ± 0.015	1.91 ± 0.025	1.641 ± 0.007	0.566 ± 0.016
GCUGUCACCGGUGUAUUACCCUAGUGGUCGACCGGUCUGAUGAGUCUAGUAUAAGACGAAACAGC	0.449 ± 0.0061	1.91 ± 0.079	1.7692 ± 0.0007	0.472 ± 0.057
GCUGUCACCGGUGUAUUACCCUAGUGGUCGACCGGUCUGAUGAGUCUGGUAUGAGACGAAACAGC	-0.113 ± 0.019	1.73 ± 0.052	1.32 ± 0.038	0.434 ± 0.035
GCUGUCACCGGUGUAUUACCCUAGUGGUCGACCGGUCUGAUGAGUCUUGUAUGAGACGAAACAGC	0.361 ± 0.043	1.909 ± 0.007	1.777 ± 0.0029	0.435 ± 0.059
GCUGUCACCGGUGUAUUACCCUAGUGGUCGACCGGUCUGAUGAGUCUCGUCAAAGACGAAACAGC	0.13 ± 0.025	1.96 ± 0.023	1.807 ± 0.016	0.3 ± 0.077
GCUGUCACCGGUGUAUUACCCUAGUGGUCGACCGGUCUGAUGAGUCUGGUCACAGACGAAACAGC	0.222 ± 0.021	1.91 ± 0.05	1.825 ± 0.0063	0.633 ± 0.0098
GCUGUCACCGGUGUAUUACCCUAGUGGUCGACCGGUCUGAUGAGUCUAGUCAUAGACGAAACAGC	0.385 ± 0.052	1.92 ± 0.0085	1.79 ± 0.023	0.509 ± 0.025
GCUGUCACCGGUGUAUUACCCUAGUGGUCGACCGGUCUGAUGAGUCUGGUCCAAGACGAAACAGC	0.354 ± 0.029	1.96 ± 0.023	1.94 ± 0.056	0.465 ± 0.041
GCUGUCACCGGUGUAUUACCCUAGUGGUCGACCGGUCUGAUGAGUCUUGUCCCAGACGAAACAGC	0.383 ± 0.13	2 ± 0.12	1.935 ± 0.013	0.29 ± 0.068
GCUGUCACCGGUGUAUUACCCUAGUGGUCGACCGGUCUGAUGAGUCUUGUCCUAGACGAAACAGC	0.984 ± 0.042	1.95 ± 0.091	1.93 ± 0.039	0.87 ± 0.054
GCUGUCACCGGUGUAUUACCCUAGUGGUCGACCGGUCUGAUGAGUCUAGUCCUAGACGAAACAGC	0.767 ± 0.076	1.92 ± 0.085	1.895 ± 0.015	0.719 ± 0.034
GCUGUCACCGGUGUAUUACCCUAGUGGUCGACCGGUCUGAUGAGUCUAGUCGAAGACGAAACAGC	0.423 ± 0.022	1.95 ± 0.035	1.61 ± 0.058	0.654 ± 0.0092
GCUGUCACCGGUGUAUUACCCUAGUGGUCGACCGGUCUGAUGAGUCUUGUCGGAGACGAAACAGC	0.0812 ± 0.15	1.9 ± 0.04	1.543 ± 0.01	0.151 ± 0.019
GCUGUCACCGGUGUAUUACCCUAGUGGUCGACCGGUCUGAUGAGUCUAGUCGGAGACGAAACAGC	0.0517 ± 0.00086	1.85 ± 0.049	1.48 ± 0.085	0.38 ± 0.078
GCUGUCACCGGUGUAUUACCCUAGUGGUCGACCGGUCUGAUGAGUCUUGUCGUAGACGAAACAGC	0.313 ± 0.02	1.91 ± 0.036	1.61 ± 0.041	0.591 ± 0.008
